# Assay results published in the supplement of paper PMC9170038.
# Test system: MS2 coat protein
# Assay: apparent KD of MS2 coat protein; designed switch direction (-1 OFF switch, 1 ON switch): -1; higher = weaker reporter binding
# Procedure, shortened: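 RNA switches sharing common flanks were transcribed by stalled E. coli RNA polymerase on Illumina chips. A doubling series of SNAP-549-labelled MS2 coat protein, from 0.7 or 1.5 nM to 3 µM, was applied in Tris-HCl pH 7.5 buffer with KCl, MgCl2, BSA, DTT, tRNA and Tween-20. Each step lasted 0.8–1.5 h at the bottom of the series and 10–20 min at the top. Normalised cluster fluorescence was curve-fitted, giving apparent KD as the per-design median over clusters.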
# [1] = Eterna round: R95, input ligand: microRNA oligo, concentration not stated
# [2] = Eterna round: R95, input ligand: FMN 200 uM
# [3] = Eterna round: R95, input ligand: none
# [4] = input ligand: microRNA oligo, concentration not stated
Sequence,apparent KD of MS2 coat protein (input ligand: FMN 200 uM) [nM],apparent KD of MS2 coat protein (input ligand: none) [nM],apparent KD of MS2 coat protein [1] [nM],apparent KD of MS2 coat protein [2] [nM],apparent KD of MS2 coat protein [3] [nM],apparent KD of MS2 coat protein [4] [nM]
"CAUUAUGUUGAGGAUAUGCGCCGGCUCGCUGACGCAGAAGGCGACACAUGAGGAUCACCCAUGUCAGUUCGCGA [salish99_ex6_r004_420] (Eterna round: R97, puzzle: Exclusion 6)",15.8,14.5,–,–,–,–
"AGCUAGAUAGGAUAUGCCCGGGAUAACAUGAGGAUCACCCAUGUGACCGAUUCAUGUCCUGCAGAAGGGUUUGGGA [Mod of ViennaUCT 7 - Jieux - Exclusion 5] (Eterna round: R97, puzzle: Exclusion 5)",15.1,12.7,–,–,–,–
"GCCUCACAUGAGGAUCACCCAUGUGAGGAUAUUGAGUUACCAGGCGAACAAGCGACUACGAGAAGGCACGUGGA [Eternabot (L2) Solution 85] (Eterna round: R97, puzzle: Exclusion 1)",12,13.9,–,–,–,–
"AUAAGUAUAUAGGAUAUCUAGCUGGAAACAGCUAGAGAAGGAUGUACAUGAGGAUCACCCAUGUAAAUCAAUAG [Ex6/8-A2] (Eterna round: R97, puzzle: Exclusion 6)",17.9,19.6,–,–,–,–
GUAAAGUGAGGAUAUGGUAAAUUAAUUAUUUAUUAAUUAAUCCAGAAGGCACAUGAGGAUCACCCAUGUAAAUG [Mat - Exclusion 4 - D94] (puzzle: Exclusion 4),–,–,26.5,–,–,–
GUGUAACAAGGAUAUACAUGAGGAUCACCCAUGUGAAUAAGAUUGAAUAAGAUAAAGUGUAGAAGGUGUAGUGU [Excluse me!!! 9 - Jieux - Exclusion 3] (puzzle: Exclusion 3),–,–,31.6,32.5,37.1,–
"GGACAUAAAGUCAGGAUAUUAAGGCGACCACGCGAUGAGAAGGGACAUGAGGAUCACCCAUGUGAUUCUCAUCA [Ingebive] (Eterna round: R97, puzzle: Brourd's mod of Exclusion 4)",74.1,72.6,–,–,–,–
"AUAAUGUAAGGAUAUCAGUCGUACAGCGAUAGCUGUACGACUGAGAAGGUACAUGAGGAUCACCCAUGUGAUCA [E4/8-A4] (Eterna round: R97, puzzle: Exclusion 4)",666,3680,–,–,–,–
"UUAAAUCAUGUAGGAUAUGCUUUGCAAAGCGAAGCAGAAGGACAUGAGGAUCACCCAUGUGCUAGCGUCCGAGAACGGAUGCAA [Mat - Exclusion NG 1 - Mod of JL - D65] (Eterna round: R96, puzzle: Exclusion NG 1)",501,61.5,–,–,–,60.6
UUCAGACAUGAGGAUCACCCAUGUGAGGAUAUGAUGCGAUCGUCGAAAGACGAUAGCAUCAGAAGGCACAAAUG [Fiskers Ex 1 - 18] (puzzle: Exclusion 1),–,–,114,–,–,–
"ACAUGAGGAUCACCCAUGUCCGUCUGAUCUGUCUCGGCUGUCGAGGAUAUAGCCCGGUAUCCGCGCUAGAAGGUGGGAGUCGGA [Aenatbe mod 100] (Eterna round: R96, puzzle: Exclusion NG 3)",34.9,42,–,–,–,33.4
"CAUAGUCUAGGAUAUUCACCUCUAUACAUGAGGAUCACCCAUGUCAAUGGCAGAUGACCAGAAGAAGGAGAAGUGG [Eternabot (L1) Solution 16] (Eterna round: R97, puzzle: Exclusion 5)",90.2,84.8,–,–,–,–
CCUUUGUCAGGAUAUCAGAACGCGCUCGAAAGGAACGCAAAUGAGAAGGGACAUGAGGAUCACCCAUGUAAAGA [Enenrixe] (puzzle: Exclusion 4),–,–,42.8,158,45,–
"GGAAGGCGAGGAUAUACAAUGCCGGAAACGGCAGGCGUGAGACAUGAGGAUCACCCAUGUAGAAGGCGCGGAGA [AK-MS2ROC-r4-exclusion2-15] (Eterna round: R97, puzzle: Exclusion 2)",101,105,–,–,–,–
"AGAGUGCUGCGAGGAUAUACAUGAGGAUCACCCAUGUAAAUGUGUGAGGCUUUGCCUCACACAAUGUAGAAGGCGCAGUACUCA [Mat - Exclusion NG 2 - Mod of JL - D2] (Eterna round: R96, puzzle: Exclusion NG 2)",19,14.4,–,–,–,10.7
GAGGAACAUGAGGAUCACCCAUGUGAGGAUAUGCAUAGUGAGGUAGUAGAAGUUGAAUGCAGAAGGUACACUGA [JR_Exclu1_Sub077] (puzzle: Exclusion 1),–,–,39,–,–,–
"UUUUAGUCAGGAUAUACAUGAGGAUCACCCAUGUAAAAUUUUAAUUUAAUUUUAAGGUGUAGAAGGGACAUUUU [Ex3 #5] (Eterna round: R97, puzzle: Exclusion 3)",24.5,27.6,–,–,–,–
"ACAUUCAGAGGAUAUGCGCAUAGAUAAGACUUUUUUUUUUAACAUGAGGAUCACCCAUGUAGAAGGCUGUAACC [Ex2 #48] (Eterna round: R97, puzzle: Exclusion 2)",23.8,24.3,–,–,–,–
